Starred links: 1 amine or outer side, 2 acyl side, 3 side chain; linkers in the order of their positions; H or OH if unused. Non-standard residues stand in square brackets, D forms with d. Groups on a side chain read outwards from the residue. *: point of attachment. C20 diacid = O=C(O)CCCCCCCCCCCCCCCCCCC(=O)*; C18 diacid = O=C(O)CCCCCCCCCCCCCCCCC(=O)*; C16 diacid = O=C(O)CCCCCCCCCCCCCCC(=O)*; γGlu = O=C(O)[C@H](CCC(=O)[*:2])N[*:1]; C14 diacid = O=C(O)CCCCCCCCCCCCC(=O)*; εLys = N[C@@H](CCCCN[*:1])C(=O)[*:2]; Trx = NC[C@H]1CC[C@H](C(=O)O)CC1; AEEA = NCCOCCOCC(=O)O; Aib = CC(C)(N)C(=O)O
T1: human amylin-3 (a) receptor (human, UniProt P30988 25-474; O60896 24-148)
T1 sequence (looked up) 1: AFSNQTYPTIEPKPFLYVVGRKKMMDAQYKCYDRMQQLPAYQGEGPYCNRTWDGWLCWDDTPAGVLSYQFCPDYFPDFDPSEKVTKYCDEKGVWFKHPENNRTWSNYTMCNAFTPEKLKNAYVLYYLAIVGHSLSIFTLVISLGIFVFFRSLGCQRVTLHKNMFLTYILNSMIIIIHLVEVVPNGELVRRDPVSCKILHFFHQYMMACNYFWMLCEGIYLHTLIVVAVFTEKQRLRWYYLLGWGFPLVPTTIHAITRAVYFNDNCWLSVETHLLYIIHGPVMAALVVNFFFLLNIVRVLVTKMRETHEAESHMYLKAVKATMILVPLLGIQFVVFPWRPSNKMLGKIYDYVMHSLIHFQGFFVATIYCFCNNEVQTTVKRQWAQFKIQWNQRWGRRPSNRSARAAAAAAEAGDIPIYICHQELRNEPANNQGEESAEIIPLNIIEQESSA
T1 sequence (looked up) 2: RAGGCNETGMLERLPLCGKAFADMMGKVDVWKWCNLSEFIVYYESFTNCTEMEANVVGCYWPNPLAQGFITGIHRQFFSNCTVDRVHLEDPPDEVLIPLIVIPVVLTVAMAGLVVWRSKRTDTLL

B1: Compound 0561 (peptide)
peptide: H[Aib]EGTFTSDVSSYLEEQAARK([AEEA-AEEA-γGlu-Trx-C20 diacid])FIAWLVRGRGGGGGEASELSTAALGRLSAELHELATLPRTETGSGSP-NH2
B2: Compound 0516 (peptide)
peptide: H[Aib]EGTFTSDVSK([AEEA-AEEA-γGlu-C16 diacid])YLEEQAARKFIAWLVRGRGGGGGEASELSTAALGRLSAELHELATLPRTETGSGSP-NH2
modifications: not fully specified (residue 21)
B3: Compound 0502 (peptide)
peptide: H[Aib]EGTFTSDVSSYLEEQAAREFIAWLVRGRK([AEEA-AEEA-γGlu-C20 diacid])GGGGEASELSTAALGRLSAELHELATLPRTETGSGSP-NH2
B4: Compound 0518 (peptide)
peptide: H[Aib]EGTFTSDVSK([AEEA-AEEA-γGlu-Trx-C20 diacid])YLEEQAAREFIAWLVRGRGGGGGEASELSTAALGRLSAELHELATLPRTETGSGSP-NH2
B5: Compound 0483 (peptide)
peptide: H[Aib]EGTFTSDVSK([AEEA-AEEA-γGlu-C16 diacid])YLEEQAVREFIAK([AEEA-AEEA-γGlu-C16 diacid])LVRGRGGGEASELSTAALGRLSAELHELATLPRTETGSGSP-NH2
B6: Compound 0052 (peptide)
peptide: H[Aib]EGTFTSDVSSYLEGQAAK([AEEA-AEEA-γGlu-C18 diacid])EFIAWLVRGRGGGGGGGGGEASELSTAALGRLSAELHELATLPRTETGSGSP-NH2
B7: Compound 0539 (peptide)
peptide: H[Aib]EGTFTSDVSSYLEGQAAREFIAWLVRGRGQEPK([AEEA-AEEA-γGlu-Trx-C20 diacid])GQAPEASELSTAALGRLSAELHELATLPRTETGSGSP-NH2
B8: Compound 0482 (peptide)
peptide: HAEGTFTSDVSK([AEEA-AEEA-γGlu-C16 diacid])YLEEQAVREFIAK([AEEA-AEEA-γGlu-C16 diacid])LVRGRGGGEASELSTAALGRLSAELHELATLPRTETGSGSP-NH2
B9: Compound 0562 (peptide)
peptide: H[Aib]EGTFTSDVSSYLEEQAARK([AEEA-AEEA-γGlu-C20 diacid])FIAWLVRGRGGGGGEASELSTAALGRLSAELHELATLPRTETGSGSP-NH2
B10: Compound 0506 (peptide)
peptide: H[Aib]EGTFTSDVSSYLEEQAAREFIAWLVRGRKGGGGEASELSTAALGRLSAELHELATLPRTETGSGSP-NH2
modifications: not fully specified (residue 31)
B11: Compound 0473 (peptide)
peptide: HWEGTFTSDVSSYLEEK([AEEA-AEEA-γGlu-C20 diacid])AAREFIEWLVRGRGEASELSTAALGRLSAELHELATLPRTETGSGSP-NH2
B12: Compound 0511 (peptide)
peptide: H[Aib]EGTFTSDVSRYLEEQAAREFIEWLVRGRK([AEEA-AEEA-γGlu-Trx-C20 diacid])GGGGEASELSTAALGRLSAELHELATLPRTETGSGSP-NH2
B13: Compound 0475 (peptide)
peptide: HAEGTFTSDK([AEEA-AEEA-γGlu-C16 diacid])SSYLEEK([AEEA-AEEA-γGlu-C16 diacid])AAREFIEWLVRGRGEASELSTAALGRLSAELHELATLPRTETGSGSP-NH2
B14: Compound 0504 (peptide)
peptide: H[Aib]EGTFTSDVSSYLEEQAAREFIAWLVRGRPK([AEEA-AEEA-γGlu-Trx-C20 diacid])GGGGEASELSTAALGRLSAELHELATLPRTETGSGSP-NH2
B15: Compound 0484 (peptide)
peptide: H[Aib]EGTFTSDVSK([AEEA-AEEA-γGlu-C14 diacid])YLEEQAVREFIAK([AEEA-AEEA-γGlu-C14 diacid])LVRGRGGGEASELSTAALGRLSAELHELATLPRTETGSGSP-NH2
B16: Compound 0512 (peptide)
peptide: H[Aib]EGTFTSDVSSYLEEQAAREFIAWLVRGRK([AEEA-AEEA-γGlu-Trx-C20 diacid])GGEASELSTAALGRLSAELHELATLPRTETGSGSP-NH2
B17: Compound 0529 (peptide)
peptide: H[Aib]EGTFTSDVSSYLEGQAAREFIAWLVRGRGQEPK([AEEA-AEEA-γGlu-C20 diacid])GQAPEASELSTAALGRLSAELHELATLPRTETGSGSP-NH2
B18: Compound 0565 (peptide)
peptide: H[Aib]EGTFTSDVSK([AEEA-AEEA-γGlu-C20 diacid])YLEEQAAREFIAWLVRGRGGGGGEASELSTAALGRLSAELHELATLPRTETGSGSP-NH2
B19: Compound 0056 (peptide)
peptide: H[Aib]EGTFTSDVSSYLEGQAAK([AEEA-AEEA-γGlu-C18 diacid])EFIAWLVRGRGK([AEEA-AEEA-γGlu-C18 diacid])QEPGQEPEASELSTAALGRLSAELHELATLPRTETGSGSP-NH2
B20: Compound 0509 (peptide)
peptide: H[Aib]EGTFTSDVSSYLEEQAARK([AEEA-AEEA-γGlu-C16 diacid])FIAWLVRGRGGGGGEASELSTAALGRLSAELHK([AEEA-AEEA-γGlu-C16 diacid])LATLPRTETGSGSP-NH2
B21: Compound 0528 (peptide)
peptide: H[Aib]EGTFTSDVSK([AEEA-AEEA-γGlu-C16 diacid])YLEEQAAREFIAWLVRGRK([AEEA-AEEA-γGlu-C16 diacid])GGGGEASELSTAALGRLSAELHELATLPRTETGSGSP-NH2
B22: Compound 0474 (peptide)
peptide: HAEGTFTSDVSSYLEEK([AEEA-AEEA-γGlu-C20 diacid])AAREFIEWLVRGRGEASELSTAALGRLSAELHELATLPRTETGSGSP-NH2
B23: Compound 0503 (peptide)
peptide: H[Aib]EGTFTSDVSSYLEEQAAREFIEWLVRGRK([AEEA-AEEA-γGlu-Trx-C20 diacid])GGGGEASELSTAALGRLSAELHELATLPRTETGSGSP-NH2
B24: Compound 0564 (peptide)
peptide: H[Aib]EGTFTSDVSK([AEEA-Lys])YLEEQAAREFIAWLVRGRGGGGGEASELSTAALGRLSAELHELATLPRTETGSGSP-NH2
modifications: also: Lys on Ado carries two C16 diacid-gGlu-Ado-Ado groups, on its alpha and epsilon amines
B25: Compound 0552 (peptide)
peptide: H[Aib]EGTFTSDVSSYLEEQAAREFIAWLVRGRK([εLys-AEEA-AEEA-γGlu-C20 diacid])GGGGEASELSTAALGRLSAELHELATLPRTETGSGSP-NH2

Each binder was assayed against human GLP-1 receptor (human, UniProt P43220 24-463) (assay: cell-based or functional assay).

| Binder | Human GLP-1R potency [EC50 (pM)] [pM] |
| --- | --- |
| B1 | 17.5 |
| B2 | 3.3 |
| B3 | 8.4 |
| B4 | 3.4 |
| B5 | 33.7 |
| B6 | 17 |
| B7 | 5 |
| B8 | 36.5 |
| B9 | 19.3 |
| B10 | 5.8 |
| B11 | 3.1 |
| B12 | 8.8 |
| B13 | 70.4 |
| B14 | 8.3 |
| B15 | 72.8 |
| B16 | 7.6 |
| B17 | 6.4 |
| B18 | 6.4 |
| B19 | 41.4 |
| B20 | 7.1 |
| B21 | 3.8 |
| B22 | 2.9 |
| B23 | 6.5 |
| B24 | 24.5 |
| B25 | 4.7 |

What follows are binders tested against T1, human amylin-3 (a) receptor (assay: cell-based or functional assay).

| Binder | Human AmyR3 potency [EC50 (pM)] [pM] |
| --- | --- |
| B1 | 10.7 |
| B2 | 8.9 |
| B3 | 9 |
| B4 | 4.4 |
| B5 | 36.8 |
| B6 | 19.4 |
| B7 | 12.1 |
| B8 | 31.8 |
| B9 | 4.1 |
| B10 | 9.8 |
| B11 | 16.2 |
| B12 | 8.4 |
| B13 | 66.8 |
| B14 | 6 |
| B15 | 32.5 |
| B16 | 10.8 |
| B17 | 14.1 |
| B18 | 6.2 |
| B19 | 120 |
| B20 | 29.9 |
| B21 | 22 |
| B22 | 21.8 |
| B23 | 7.7 |
| B24 | 14.5 |
| B25 | 6.9 |

Source: patent US20260132182A1 (published 2026)
